{
  "source": "paper PMC12871931",
  "about": "(2025)",
  "binders": {"B1": {"name": "TAMRA‐NOP‐1 (EIN2 NLS peptide, N‐terminally labeled with 5‐TAMRA) (peptide)", "peptide": "{5‑TAMRA}-LKRYKRRL"}},
  "test_in_all_cases": "FP",
  "key": {"[1]": {"molecular_target": "importin α1 (IMPα1), Arabidopsis thaliana, recombinant (Arabidopsis thaliana, UniProt Q96321 1-532)", "sequence (Q96321 whole entry)": "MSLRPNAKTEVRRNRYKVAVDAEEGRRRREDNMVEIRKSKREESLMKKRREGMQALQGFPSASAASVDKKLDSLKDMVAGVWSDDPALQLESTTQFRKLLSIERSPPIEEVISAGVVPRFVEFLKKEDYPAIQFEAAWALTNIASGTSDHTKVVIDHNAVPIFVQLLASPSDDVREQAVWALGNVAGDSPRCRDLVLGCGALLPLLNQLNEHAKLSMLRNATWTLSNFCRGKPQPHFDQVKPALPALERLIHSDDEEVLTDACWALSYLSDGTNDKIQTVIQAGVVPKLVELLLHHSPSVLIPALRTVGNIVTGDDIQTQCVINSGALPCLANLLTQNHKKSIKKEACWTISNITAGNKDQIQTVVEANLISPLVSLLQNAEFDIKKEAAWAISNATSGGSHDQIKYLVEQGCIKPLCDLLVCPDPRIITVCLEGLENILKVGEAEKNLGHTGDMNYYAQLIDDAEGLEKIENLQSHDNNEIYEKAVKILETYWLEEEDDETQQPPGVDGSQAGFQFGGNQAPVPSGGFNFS"}, "[2]": {"molecular_target": "importin α3 (IMPα3), Arabidopsis thaliana, recombinant (Arabidopsis thaliana, UniProt O04294 1-531)", "sequence (O04294 whole entry)": "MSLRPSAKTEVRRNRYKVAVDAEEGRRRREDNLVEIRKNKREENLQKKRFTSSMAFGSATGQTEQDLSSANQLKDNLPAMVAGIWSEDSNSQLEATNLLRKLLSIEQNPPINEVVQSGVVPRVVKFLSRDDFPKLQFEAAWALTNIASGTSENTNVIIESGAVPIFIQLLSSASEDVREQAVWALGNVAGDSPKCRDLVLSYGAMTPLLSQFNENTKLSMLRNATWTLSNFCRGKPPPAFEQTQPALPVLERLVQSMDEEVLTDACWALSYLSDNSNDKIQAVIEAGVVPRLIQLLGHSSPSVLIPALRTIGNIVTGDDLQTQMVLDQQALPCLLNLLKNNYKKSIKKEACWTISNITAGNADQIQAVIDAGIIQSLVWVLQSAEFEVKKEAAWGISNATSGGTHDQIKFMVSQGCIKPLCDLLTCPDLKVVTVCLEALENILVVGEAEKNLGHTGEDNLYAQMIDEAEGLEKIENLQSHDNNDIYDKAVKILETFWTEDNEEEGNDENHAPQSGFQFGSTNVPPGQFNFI"}, "[3]": {"molecular_target": "importin α2 (IMPα2), Arabidopsis thaliana, recombinant (Arabidopsis thaliana, UniProt F4JL11 1-535)", "sequence (F4JL11 whole entry)": "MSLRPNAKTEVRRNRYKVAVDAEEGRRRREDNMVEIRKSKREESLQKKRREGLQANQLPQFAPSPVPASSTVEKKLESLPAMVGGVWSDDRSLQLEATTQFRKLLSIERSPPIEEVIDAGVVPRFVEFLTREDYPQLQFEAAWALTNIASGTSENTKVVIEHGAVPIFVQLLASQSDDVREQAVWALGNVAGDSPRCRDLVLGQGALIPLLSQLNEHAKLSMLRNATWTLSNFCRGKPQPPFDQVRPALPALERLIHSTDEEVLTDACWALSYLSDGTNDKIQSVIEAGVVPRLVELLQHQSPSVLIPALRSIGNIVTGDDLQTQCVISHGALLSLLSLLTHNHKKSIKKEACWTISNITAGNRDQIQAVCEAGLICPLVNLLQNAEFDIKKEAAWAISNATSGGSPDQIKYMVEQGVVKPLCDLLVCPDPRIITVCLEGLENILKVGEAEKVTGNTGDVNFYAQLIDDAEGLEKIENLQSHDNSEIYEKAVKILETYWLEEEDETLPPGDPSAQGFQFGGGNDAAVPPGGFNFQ"}},
  "note": "Ends that are not written are not given here. * marks the point of attachment. 5‑TAMRA = 5-carboxytetramethylrhodamine, N-terminal label, CN(C)c1ccc2c(-c3ccc(C(=O)*)cc3C(=O)[O-])c3ccc(N(C)C)cc3[o+]c2c1",
  "data": [
    {"binder": "B1", "values": [
      {"measurement": "Kd", "setting": "[1]", "result": 4.6, "unit": "µM"},
      {"measurement": "Kd", "setting": "[2]", "result": 5.4, "unit": "µM"},
      {"measurement": "Kd", "setting": "[3]", "result": 5.8, "unit": "µM"}
    ]}
  ]
}
